Data on seven molecules can be found in patent US20170190787A1 (INSERM INSTITUT NATIONAL DE LA SANT ET DE LA RECHERCHE M …, published 2017).

The target in test [1] is T1, EGFR fused to SNAP-tag, expressed on transfected HEK293T cells (UniProt P00533 25-1210, terbium cryptate donor fluorochrome (SNAP-Tb) covalently on the SNAP-tag).
T1 construct: whole, on cells; also called EGFR-ST; ErbB1-ST; not shown: SNAP-tag and FLAG tag (Cisbio plasmid)
Briefly: KD in the presence of panitumumab as competitor; method not stated for Table 3.

Test [2] concerns the target T1, EGFR fused to SNAP-tag, expressed on …. Put plainly: KD in the presence of cetuximab as competitor; method not stated for Table 3.
Test [3] has the same target. Put plainly: HTRF on EGFR-ST transfected HEK293T cells, directly d2-labeled sdAb; apparent Kd. In general terms: Time-resolved FRET reads energy transfer from a long-lived donor to a nearby acceptor.
The target is the same in test [4]. Briefly: HTRF on EGFR-ST cells; KD in the presence of D10 as competitor.
Test [5] has the same target. Briefly: KD in the presence of Ab-3 as competitor; method not stated for Table 3.
For test [6] the target is unchanged. Briefly: HTRF on EGFR-ST cells; KD in the presence of G10 as competitor.
Test [7] has the same target. Briefly: HTRF on EGFR-ST cells; KD in the presence of irrelevant sdAb as competitor.
Test [8] has the same target. Briefly: KD in the presence of irrelevant sdAb as competitor; method not stated for Table 3.
The target in test [9] is T2, wild type EGFR on cells in the presence of EGF (ligand-activated, extended conformation) (UniProt P00533 25-1210; P01133 971-1023).
T2 construct: Receptor-ligand complex as the target: EGFR with EGF added to the cells; also called extended EGFR
Put plainly: flow cytometry on A431 cells, d2-labeled sdAb with excess EGF. A general note: Flow cytometry measures light scatter and fluorescence of single cells or particles in a stream.

For test [10], the target named is T3, wild type EGFR on cells (A431 cells; HEK293T or NIH/3T3 cells transfected with wild type ErbB1) (UniProt P00533 25-1210, limits assumed).
T3 construct: whole, on cells; no ligand added; also called HER1
Put plainly: flow cytometry on A431 cells, d2-labeled sdAb with large excess of cetuximab.

Test [11] addresses T4, ErbB4 fused to HALO-Tag, expressed on transfected HEK293T cells (UniProt Q15303 26-1308, donor fluorochrome covalently on the HALO-Tag).
T4 construct: whole, on cells; also called ErbB4-HT; not shown: HALO-Tag and c-myc tag
Put plainly: HTRF on transfected HEK293T cells, anti-His-d2 detection.

In test [12] the target is T5, ErbB2 fused to SNAP-tag, expressed on transfected HEK293T cells (UniProt P04626 23-1255, donor fluorochrome covalently on the SNAP-tag).
T5 construct: whole, on cells; also called ErbB2-ST; not shown: SNAP-tag and FLAG tag
The test is described as above.

The target in test [13] is T6, ErbB3 fused to SNAP-tag, expressed on transfected HEK293T cells (UniProt P21860 20-1342, donor fluorochrome covalently on the SNAP-tag).
T6 construct: whole, on cells; also called ErbB3-ST; not shown: SNAP-tag and FLAG tag
The test is described as above.

In test [14] the target is T1, EGFR fused to SNAP-tag, expressed on …. Briefly: HTRF on EGFR-ST transfected HEK293T cells, sdAb detected with anti-His-d2; apparent Kd.
The target is the same in test [15]. Put plainly: HTRF on living cells; comparison value for monovalent D10.
For test [16] the target is unchanged. Briefly: HTRF on EGFR-ST cells; KD in the presence of E10 as competitor.
Test [17] has the same target. Put plainly: KD in the presence of irrelevant sdAb as competitor; method not stated for Table 3 (values of this column equal Table 2, HTRF on EGFR-ST).
Test [18] has the same target. Briefly: KD in the presence of m425 as competitor; method not stated for Table 3.
The target of test [19] is T3, wild type EGFR on cells (A431 cells; …). Briefly: cell-based or functional assay.
Test [20] addresses T2, wild type EGFR on cells in the presence …. Put plainly: flow cytometry on A431 cells, G10-d2 in the presence of EGF.

T4 sequence (Q15303 26-1308): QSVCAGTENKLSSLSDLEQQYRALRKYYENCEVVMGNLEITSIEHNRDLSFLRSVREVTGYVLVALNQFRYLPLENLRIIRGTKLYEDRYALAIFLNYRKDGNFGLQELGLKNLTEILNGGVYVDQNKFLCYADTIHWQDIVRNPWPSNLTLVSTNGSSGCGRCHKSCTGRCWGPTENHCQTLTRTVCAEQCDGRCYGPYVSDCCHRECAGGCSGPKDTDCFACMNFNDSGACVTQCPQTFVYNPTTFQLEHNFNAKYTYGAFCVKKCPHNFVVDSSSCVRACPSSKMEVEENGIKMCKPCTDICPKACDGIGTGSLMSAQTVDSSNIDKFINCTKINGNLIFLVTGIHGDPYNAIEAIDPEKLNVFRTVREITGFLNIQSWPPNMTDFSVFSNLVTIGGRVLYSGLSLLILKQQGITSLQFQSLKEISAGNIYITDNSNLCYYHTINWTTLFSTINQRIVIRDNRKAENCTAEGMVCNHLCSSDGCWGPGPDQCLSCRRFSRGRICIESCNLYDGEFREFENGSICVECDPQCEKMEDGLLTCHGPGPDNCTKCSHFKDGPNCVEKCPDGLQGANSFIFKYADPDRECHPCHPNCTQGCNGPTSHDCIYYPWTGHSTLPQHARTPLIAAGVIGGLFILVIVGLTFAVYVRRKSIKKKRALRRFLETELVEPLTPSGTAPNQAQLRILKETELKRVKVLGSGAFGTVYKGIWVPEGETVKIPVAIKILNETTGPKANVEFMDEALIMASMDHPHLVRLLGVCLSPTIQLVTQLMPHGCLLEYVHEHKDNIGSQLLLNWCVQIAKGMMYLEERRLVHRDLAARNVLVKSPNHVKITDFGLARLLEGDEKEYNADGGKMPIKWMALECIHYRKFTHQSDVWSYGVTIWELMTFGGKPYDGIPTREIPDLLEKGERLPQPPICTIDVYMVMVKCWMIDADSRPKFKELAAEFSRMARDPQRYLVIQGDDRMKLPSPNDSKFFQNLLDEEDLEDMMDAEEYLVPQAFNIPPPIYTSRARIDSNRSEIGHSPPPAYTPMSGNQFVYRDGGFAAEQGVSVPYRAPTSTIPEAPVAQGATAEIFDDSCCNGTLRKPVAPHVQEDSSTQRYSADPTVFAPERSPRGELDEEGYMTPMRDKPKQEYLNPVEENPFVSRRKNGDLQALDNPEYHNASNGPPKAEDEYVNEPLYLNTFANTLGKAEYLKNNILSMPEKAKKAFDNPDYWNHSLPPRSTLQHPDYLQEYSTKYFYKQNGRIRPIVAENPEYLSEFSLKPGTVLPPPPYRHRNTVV

B1: d2-labeled anti-EGFR single domain antibody E10 (VHH)
VHH: QVQLQESGGGLAQAGGSLRLSCAASGRTLSSYDMGWFRQAPGKEREFVTAINWGDLSTYYADSVKGRFTISRDNAKNTVYLQMNSLKPEDTAVYYCAARLRYTVSDPIFSRPDRYNYWGQGTQVTVSS
modifications: d2 fluorochrome (d2-NHS) on lysine residues, positions not given
notes: E10 chemically coupled to the acceptor fluorochrome d2 by NHS chemistry; also called E10-d2; E10-D2; not shown: His tag
Take B1: the Kd in test [1] came to 70 nM; in [2] it was 11 nM; in [3], 106 nM; in test [4], 17 nM; in test [5], 67 nM; in test [6], 17 nM. Also, the Kd in test [7] and in test [8] was 20 nM each time. Further, the binding result in [9] is recorded as “no binding”. Also, the “fold increase of binding in the presence of cetuximab” value in test [10] was determined as 2 fold.

B2: anti-EGFR single domain antibody E10 (VHH, not shown: small tags and cut ends)
VHH: QVQLQESGGGLAQAGGSLRLSCAASGRTLSSYDMGWFRQAPGKEREFVTAINWGDLSTYYADSVKGRFTISRDNAKNTVYLQMNSLKPEDTAVYYCAARLRYTVSDPIFSRPDRYNYWGQGTQVTVSS
notes: Llama VHH produced in E. coli, His-tagged; also called sdAb E10; unlabeled E10
Consider B2, for which the binding result in [11], in test [12] and in test [13] was “no binding” throughout. In addition, the Kd in test [14] came out at 25 nM.

B3: anti-EGFR single domain antibody D10 (VHH, not shown: small tags and cut ends)
VHH: EVQLVESGGGLVQAGGSLRLSCAVSISRTIFSLYAMEWYRQPPGKQRDLVARIYRSGDTNYADSVKGRFTISRDNAKNTVYLQMNSLKPEDTGVYYCNSPAQDWPWGQGTQVTVSS
notes: Llama VHH produced in E. coli, His-tagged; also called sdAb D10; unlabeled D10
For B3, the figures for the Kd in test [15] and in [14] were 6 nM and 7 nM, respectively. For the same molecule, the binding result in [11], in test [12] and in test [13] was “no binding” throughout.

B4: d2-labeled anti-EGFR single domain antibody D10 (VHH)
VHH: EVQLVESGGGLVQAGGSLRLSCAVSISRTIFSLYAMEWYRQPPGKQRDLVARIYRSGDTNYADSVKGRFTISRDNAKNTVYLQMNSLKPEDTGVYYCNSPAQDWPWGQGTQVTVSS
modifications: d2 fluorochrome (d2-NHS) on lysine residues, positions not given
notes: D10 chemically coupled to the acceptor fluorochrome d2 by NHS chemistry; also called D10-d2; d2-labeled clone D10; not shown: His tag
B4: the Kd was determined as 11 nM in [16]; 7 nM in test [17]; 13 nM in [1]; 10 nM in test [2]; 27 nM in [3]; 3 nM in [5]. In addition, the Kd in [6] came to 7 nM; in [18], 14 nM; in test [7], 7 nM. Further, the binding result in test [9] was “no binding”.

B5: biparatopic single domain antibody D4E (D10 - 4x(G4S) linker - E10) (bispecific antibody)
chain: EVQLQESGGGLVQAGGSLRLSCAVSISRTIFSLYAMEWYRQPPGKQRDLVARIYRSGDTNYADSVKGRFTISRDNAKNTVYLQMNSLKPEDTGVYYCNSPAQDWPWGQGTQVTVSSAAAGGGGSGGGGSGGGGSGGGGSMAQVQLQESGGGLAQAGGSLRLSCAASGRTLSSYDMGWFRQAPGKEREFVTAINWGDLSTYYADSVKGRFTISRDNAKNTVYLQMNSLKPEDTAVYYCAARLRYTVSDPIFSRPDRYNYWGQGTQVTVSSAAAEQKLISEEDLNGAAHHHHHHGS
notes: also called bisdAb D4E
For the molecule B5, the “inhibition of EGF-induced EGFR phosphorylation (FIG. 11); concentration against that of cetuximab” value in test [19] was found to be 100 fold.

B6: d2-labeled anti-EGFR single domain antibody G10 (VHH)
VHH: EVQLVESGGGLVQAGGSLRLSCAASGRTFSNYAMGWFRQAPGKEREFVAGIIWSGSRTYYADPVKGRFTISRDNAKNTVYLQMNSLNVEDTAVYYCAASMGDYDVSLASPRSWGKGTQVTVSS
modifications: d2 fluorochrome (d2-NHS) on lysine residues, positions not given
notes: G10 chemically coupled to the acceptor fluorochrome d2 by NHS chemistry; also called G10-d2; d2-labeled clone G10; not shown: His tag
Take B6: the “fold increase of affinity against EGFR without EGF” value in [20] turned out to be 8 fold. The Kd was determined as 17 nM in test [16]; 27 nM in [1]; 21 nM in test [2]; 87 nM in test [3]; 6 nM in test [4]; 32 nM in test [18]. For the same molecule, the Kd in [7] and in test [8] was 12 nM in each case.

B7: anti-EGFR single domain antibody G10 (VHH, not shown: small tags and cut ends)
VHH: EVQLVESGGGLVQAGGSLRLSCAASGRTFSNYAMGWFRQAPGKEREFVAGIIWSGSRTYYADPVKGRFTISRDNAKNTVYLQMNSLNVEDTAVYYCAASMGDYDVSLASPRSWGKGTQVTVSS
notes: Llama VHH produced in E. coli, His-tagged; also called sdAb G10; unlabeled G10
As to B7, the binding result in test [11], in test [12] and in [13] was “no binding” in each case. In addition, the Kd in [14] worked out at 15 nM.
